From patent publication US7498306B2, “Peptides binding to the phosphatase 2A protein” (priority 2002, dated 2009) come the findings set out here.

Assay [1] concerns the target T1, trimeric ABC holoenzyme PP2A1 (Sus scrofa, UniProt P54612+Q29090).
T1 construct: The trimeric PP2A1 protein has been purified to homogeneity from porcine brain; from tissue; host or cells: porcine brain
Description: peptide spot membrane binding, detected by western blot, with trimeric PP2A1 holoenzyme. Set-up: species or system porcine. As to conditions: 4 μg/ml purified protein overnight, pool of antibodies against A, B and C; for binding of E4orf4 peptide sequence to PP2A1 protein: E4orf4 dodecapeptide membrane, FIG. 1; for binding of Bcl-2 peptide sequence to PP2A1 holoenzyme: Bcl-2 dodecapeptide membrane, FIG. 2. The text has this: The trimeric PP2A1 protein has been purified to homogeneity from porcine brain.
(§1) We have mapped the binding sites between the E4orf4 proteins (coded by the canine adenovirus type 2) and the anti-apoptotic Bcl-2 protein with PP2A by using the <<peptides spot>> technique previously described (Frank et Overwing. (1996). Meth. Mol. Biol. 66, 149-169).
(§2) This approach is based on the use of membranes containing thereon dodecapeptides representing the whole protein of interest (E4orf4 and Bcl-2) with a two amino acid gap per peptide.
Each membrane is first saturated one hour at room temperature with TBS containing 5% skim milk powder and 3% BSA, then incubated overnight in the same buffer in the of 4 μg/ml of purified protein (sub-unit A of PP2A and PP2A1 holoenzyme).: Fifty six dodecapeptides covering the whole sequence of the E4orf4 protein and hundred-fifteen dodecapeptides covering the whole sequence of the Bcl-2 protein were synthesized and covalently bound to cellulosic membranes.
The specific interaction of each purified protein (respectively the structural sub-unit A, the regulatory sub-unit of B55(B) or the trimeric ABC holoenzyme (named PP2A1) with a peptide sequence is shown by western blot, following incubation of the membrane with an antibody raised against the structural protein A (A), the regulatory sub-unit B (B) and with a pool of antibodies recognising the A, B, and C proteins of PP2A (ABC) (FIGS. 1 and 2).

Assay [2] concerns the target T2, structural sub-unit A of PP2A (Homo sapiens, UniProt P30153).
T2 construct: made in house; host or cells: bacteria
Briefly: peptide spot membrane binding, detected by western blot, with PP2A sub-unit A. Conditions: E4orf4 dodecapeptide membrane; 4 μg/ml purified protein overnight; antibody against protein A; FIG. 1.
Excerpt: Recombinant protein A (structural sub-unit of PP2A) expressed in bacteria.
as §1, §2
(§3) Each membrane is first saturated one hour at room temperature with TBS containing 5% skim milk powder and 3% BSA, then incubated overnight in the same buffer in the of 4 μg/ml of purified protein (sub-unit A of PP2A and PP2A1 holoenzyme).: Fifty six dodecapeptides covering the whole sequence of the E4orf4 protein and hundred-fifteen dodecapeptides covering the whole sequence of the Bcl-2 protein were synthesized and covalently bound to cellulosic membranes. […]

Assay [3] has as its target T3, regulatory sub-unit B55 (B) of PP2A (Homo sapiens, UniProt P63151).
T3 construct: made in house; host or cells: bacteria
T3 sequence (P63151 1-447): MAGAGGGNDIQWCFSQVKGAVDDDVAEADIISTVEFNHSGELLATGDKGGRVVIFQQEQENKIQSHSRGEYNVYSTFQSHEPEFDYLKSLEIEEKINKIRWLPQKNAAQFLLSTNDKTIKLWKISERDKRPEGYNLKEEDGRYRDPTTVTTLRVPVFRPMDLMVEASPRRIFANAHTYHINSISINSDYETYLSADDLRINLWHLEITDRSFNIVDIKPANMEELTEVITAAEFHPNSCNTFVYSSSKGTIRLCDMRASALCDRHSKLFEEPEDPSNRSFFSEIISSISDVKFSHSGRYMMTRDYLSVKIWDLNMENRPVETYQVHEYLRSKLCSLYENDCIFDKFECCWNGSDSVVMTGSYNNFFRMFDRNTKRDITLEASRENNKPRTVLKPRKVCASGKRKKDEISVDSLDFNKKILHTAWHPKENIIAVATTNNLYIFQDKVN
Description: peptide spot membrane binding, detected by western blot, with PP2A sub-unit B55. As to conditions: antibody against sub-unit B.
Excerpt: Recombinant protein B55 (regulatory sub-unit of PP2A) expressed in bacteria.
as §1, §2, §3

T1 sequence (P67776 whole entry, one chain of several, further chain): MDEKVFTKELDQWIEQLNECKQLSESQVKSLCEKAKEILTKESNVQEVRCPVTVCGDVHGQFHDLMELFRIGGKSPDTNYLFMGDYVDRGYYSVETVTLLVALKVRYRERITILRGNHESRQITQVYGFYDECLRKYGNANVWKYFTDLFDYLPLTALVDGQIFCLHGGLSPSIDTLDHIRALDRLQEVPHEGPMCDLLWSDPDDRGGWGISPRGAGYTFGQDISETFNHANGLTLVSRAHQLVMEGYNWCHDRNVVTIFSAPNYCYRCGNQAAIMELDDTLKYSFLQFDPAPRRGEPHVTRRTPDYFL
T1 sequence (P54612 whole entry, one chain of several): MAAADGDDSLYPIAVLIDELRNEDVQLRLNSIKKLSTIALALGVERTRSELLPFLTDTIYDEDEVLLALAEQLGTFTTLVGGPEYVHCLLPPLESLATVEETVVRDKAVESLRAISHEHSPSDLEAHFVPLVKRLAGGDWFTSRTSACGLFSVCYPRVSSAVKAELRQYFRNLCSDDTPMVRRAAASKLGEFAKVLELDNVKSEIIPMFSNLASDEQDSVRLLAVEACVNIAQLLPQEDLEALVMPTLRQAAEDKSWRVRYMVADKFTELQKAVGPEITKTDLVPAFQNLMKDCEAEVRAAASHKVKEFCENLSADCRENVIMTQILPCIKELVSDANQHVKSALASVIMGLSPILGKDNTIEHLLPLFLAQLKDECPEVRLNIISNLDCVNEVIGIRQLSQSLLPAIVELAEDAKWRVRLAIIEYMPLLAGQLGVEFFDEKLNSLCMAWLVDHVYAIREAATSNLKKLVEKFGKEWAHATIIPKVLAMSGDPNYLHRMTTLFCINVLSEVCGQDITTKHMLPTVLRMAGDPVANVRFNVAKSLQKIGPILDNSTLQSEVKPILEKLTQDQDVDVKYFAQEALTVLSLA
T2 sequence (P30153 whole entry): as the sequence (P54612 whole entry, one chain of several) above, with T324S counted along it

For “AFRGRE VTVSLLEVFSFC (AFRGREVTVSLLEVFSFC) [site A3, E4orf4 residues 106-124, spot peptides 52 to 55]”, the “binding of E4orf4 peptide sequence to PP2A1 protein” value in assay [1] is recorded as “binding sites of E4orf4 with the PP2A1 protein”. In addition, the “binding of E4orf4 peptide sequence to sub-unit A” value in assay [2] is “binding sites of E4orf4 with the sub-unit A”.

In the case of “ARTSPLQTPAAPGAAAGPAL [site 1-B, Bcl-2 residues 67-86, spot peptides 33 to 37]”, the “binding of Bcl-2 peptide sequence to sub-unit B” value in assay [3] (Bcl-2 dodecapeptide membrane, FIG. 2) was “binding site of Bcl-2 with the regulatory sub-unit B”.

As for “LFDFSWLSLKTLLSLALVGA [site 2-ABC, Bcl-2 residues 209-228, spot peptides 105-109]”, the “binding of Bcl-2 peptide sequence to PP2A1 holoenzyme” value in assay [1] is reported as “binding site of Bcl-2 with the PP2A1 holoenzyme”.

Take “LGSMLE SPMEFLFDTI DDVTAS (LGSMLESPMEFLFDTIDDVTAS) [site A 1, E4orf4 residues 25-46, spot peptides 13 to 18]”: the “binding of E4orf4 peptide sequence to sub-unit A” value in assay [2] is “binding sites of E4orf4 with the sub-unit A”.

For the substance “PLQTPAAPGAAAGPAL [site 1-ABC, Bcl-2 residues 71-86, spot peptides 35 to 37]”, the “binding of Bcl-2 peptide sequence to PP2A1 holoenzyme” value in assay [1] was “binding site of Bcl-2 with the PP2A1 holoenzyme”.

Turning to “RELGSMLE SPMEFLFDTI DDVTAS (RELGSMLESPMEFLFDTIDDVTAS) [site B1, E4orf4 (canine adenovirus type 2) residues 23-46, spot peptides 12 to 18]”, in assay [1], the “binding of E4orf4 peptide sequence to PP2A1 protein” value is listed as “binding sites of E4orf4 with the PP2A1 protein”. Also, in assay [3] (E4orf4 dodecapeptide membrane, FIG. 1), the “binding of E4orf4 peptide sequence to sub-unit B” value is given as “binding site of E4orf4 with the structural sub-unit B”.
